The record followed here is the supplement of paper PMC11502859.

“And” between values parts separate entries of the source, which are not always exact repeats. Identical values can stand only once.

In the data set the test system is HEK293T. As to the kind of experiment: median enrichment of reporter reads in eGFP-reduced (low/intermediate) vs eGFP-high sorted cells (eGFP-extension fusion abundance) (ratio); higher = stronger loss of eGFP-fusion protein abundance (more destabilising extension).
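Further: lentiviral eGFP-IRES-mCherry reporter pool sorted by FACS 96 h post-transduction, gated on mCherry-high cells, Illumina read counts normalized per million, median across four biological replicates.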

In the case of “KAAWPQYGPLFAGFSSSLEPPSVGGPPISPLKPALLFWGDPLLLSFPKHGVPWPAFFLCLWWGWGGLFLLAPSGGGGQVTRSG [JUP]”, the median enrichment turned out to be 4.75. The value for YKGRAQQCK [IRX2] was 0.955. With YRNSNPGVPV [INPP1], the median enrichment was found to be 0.415. Consider “EGLPFPKPRVMSNCNQAQNQRPGCEIHTSLELVVSSWPQQLFPVLTG [PHF11]”, for which the median enrichment worked out at 7.37.

As for “KGPPLLILPTPPPRFSHWPGLGCPYRRSVCSPTVRRGHTLQNTAQNSKKSLHAK [IFI35]”, the median enrichment came out at 11.2. With ACKNWFSSLSHFVIHL [Degron CL1], the median enrichment amounted to 8.24. On to RSWPPLIYSTSLAPHLH [TNFRSF6B], for which the median enrichment came to 8.26. For KGN [CYTL1], the median enrichment came out at 0.283. In the case of LQGPLDL [OR56A3], the median enrichment is 0.31.

SPWGGGKG [C6orf47]: the median enrichment worked out at 1.46. Regarding WSSSSNSICKEHFSLKTCIWIIIITTF [CCDC148], the median enrichment was found to be 3.42. The value for LSRL [ESM1] was 10.3; that for “GGTPEKMPGLIVPPQDMDSMWGQEGYLLPGKAISSSPVWGGMRPAPLVNTPFPRSSLPVLGGS [CIC]” was 6.48. Consider LLAL [MS4A5], for which the median enrichment worked out at 7.23.

Consider WDSSQFERQ [MYCBP], for which the median enrichment was determined as 0.249. On to SRPHTPALTQLLLGT [GRM2], for which the median enrichment was 5.49. As for CGVSPGLMVCLL [APOBEC3F], the median enrichment came to 12.2. With YAVGTESEYF [GFRA2], the median enrichment turned out to be 0.617.

For the substance LKPGC [KRTAP1-4], the median enrichment stood at 0.613. As to “LNFQQRPSKDILQDSVIVNIWKVLEIFIVCKYCKCIGIKLSPPLLYETAHWSL [PTHLH]”, the median enrichment was 0.919. For LNLKKSFQ [CCDC160] the value was 1.05; for “SVIPGLSTPASPPAAGTALTLLSDPHSFPEMLRMFISPAPDPMSPGLRVCFPHIGLTVSL [KLK5]”, 12.1.

“LWRSLVRRQDFSGLCLNGPHLNFSPFFLFLALGKASFYQTYRERKLQG [CTCF]”: the median enrichment is 9.53. For “LEKPQVLLRLLSLPCQVSPVLTIQLGSTPFALLPCHTVLCLLFQVGMIMPSPANILQGPPNLIAGHSQPSESESRFLLSLPSS [PGLYRP4]”, the median enrichment came to 7.65. Regarding LECRSAGRREE [CNPY1], the median enrichment stood at 12.4.

Consider LKELIFNFSLQTGQH [TAF7], for which the median enrichment is 6.43. Turning to “RAALLSSQAAPVPSPSTLEWSSSACFPSHRPATTPTMCRKHCLTIPHPPDNSQGWSPGHFQLLLSPCIVSLLCFFSLPPLLFL [RAB15]”, the median enrichment came out at 7.07.

Take YLFFFFLIEVLVL [FAM160A1]: the median enrichment was 25.1. Consider WRLRASRRDLMPRGGGCL [CTU1], for which the median enrichment was found to be 5.49. With “YKPQAPLADGRQGEKRRSSWTSETTVELRREAT [IGFL3]”, the median enrichment was found to be 1.72.

As for “GHAQAMNPQLSQMADRWSPAPIATCNSEKISLVTDQCHGGAC [SHISA3]”, the median enrichment is 1.98. For the substance “REVYLKKKSETDTSNPAVTTTPTTYVHMTNNFQVGFS [KCNH1]”, the median enrichment stood at 4.02. CLHW [RIMKLB]: the median enrichment amounted to 3.73. Take YGWWQPGFWPRAPPPD [PHC2]: the median enrichment was 2.07.

For “SNSLRLAAPLGFLPCRTCLEVLPGGGGRGRLDLLS [AQP6]”, the median enrichment came out at 3.45. Take YLSGLSVL [MCOLN3]: the median enrichment came out at 19. Consider “SACPQHLLPPSLGVWIPMELGSAGHNLFLASDLPAIIKWLQIGT [LRRC59]”, for which the median enrichment came to 7.87.

On to “GHPTPVPWRGSGPTLHNCLSRTVQTKGPAWKE [SLC37A1]”, for which the median enrichment turned out to be 2.83. As for “LVVAGPGPRPCPGPDSLSHVPSPRLPRTLSLPRPQP [MAFB]”, the median enrichment was 9.74. As for KNF [PLXDC2], the median enrichment was determined as 0.62. As for QCVSRCQ [SPG21], the median enrichment worked out at 0.894. Consider WSLRWSFVTARFARHLPGWLVLG [ARHGEF26], for which the median enrichment is 15.8. QSYHSGC [USP32]: the median enrichment came out at 0.623.

With LASCGPGNEMELTA [TSSK1B], the median enrichment is 1.49. The value for LRLQCLLRRKIKFTSSKVTLEDRALGMSFFF [OR2C3] was 4.08; that for RMLEAFIHL [ZNF248] was 1.59.

Consider HHHHH [His05], for which the median enrichment is 0.675. For “WCWKRSKHWPLVSTLQPPQVPLWGDTGGPLAVTPCAWSDPRPLPPARFLLSPAWEDVSLSTSQRARGARGWTGQ [PPP2R1A]”, the median enrichment was 3.49. Regarding LLLEIRLLQLDV [CDC27], the median enrichment came out at 10.6. On to “RAPVWMLLPRLQTTGSFPCPNPRRSFLEGSWALGTCVSCAYHRPRPPWISWIGVGE [TXNRD1]”, for which the median enrichment was found to be 10.1. Take “YLARPDPLGPFFFADNHCPAASGTSGSQGTQSSLLAVDFPLLLEPPIKEIQRDSCRPEAEHTFMAGALRGVLDPAPGDTIHFY [PLOD1]”: the median enrichment came to 9.08. As to KAQKTEALLPLAGSRDI [PNMA5], the median enrichment was 0.301.

Take YDSLVL [ALDH5A1]: the median enrichment was 0.258. In the case of “YSGLPVASSSTTELQTNHPKCRLDGEGKDWGGRVNSEGCPLPIPPGP [PODXL]”, the median enrichment turned out to be 21.5. For the substance “LTSDRRSSLSSLSGSKMTRANGTKFESCQVNTWVLSMVTSICFVMCVLFQPEWEMLIQLLQAAQWGWWL [CFH]”, the median enrichment turned out to be 6.21. Consider CTLGAVSSKSL [ZFC3H1], for which the median enrichment was 0.779. Regarding “LPRPQPGPRTSGHRWHQPLLQDHQSGAPRTLACVP [GSG1L]”, the median enrichment amounted to 17.3. For “WPLGRPPAQLPCPPPPSSSGFSVLGRLSWGRRWEGRDQLSSLAGKRGCGSQGGLQGTGMSGGHQAQRKRKQREFTGPPEKSQS [CRHR2]” the value was 1.19. As for WDFGSF [TSPAN31], the median enrichment is 0.573. For the substance CTTQDTHSTCMNNTGHTQARA [CCDC40], the median enrichment stood at 1.14. Regarding QEPHALKKTWEDMVAWNCHPRIPC [ZIM3], the median enrichment is 3.53. Turning to KPSEFSL [CD163], the median enrichment came out at 0.535.

Take QIRI [TADA1]: the median enrichment amounted to 0.507.

In the case of KFLSF [FNBP4], the median enrichment was 1.62. Turning to “KHHQSVKGLCGMQEFQTHGQSGLFFLVLRASSEHRSHIAAHREGWNEKWKRGSTFLLGDMNHLCSYYVIRNLVAWPYLAAREP [CFAP61]”, the median enrichment stood at 4.22. Turning to LSRLLASMDFSRDVDIVLRVH [DIP2C], the median enrichment turned out to be 10.3. In the case of “YVAMVKVSVAAAAMASRRRCWDCFALEPASGCPLQWLCYCMDCILDFMCMSQ [DYNLL2]”, the median enrichment was 10.8.

Consider YEAVMRMVL [SETDB1], for which the median enrichment is 4.84 and 3.68. For YARWLRNTGEASAFGKEICFGDDLSGNLNLLL [GBA3] the value was 5.41. For “LPLVLYSNLFGNDSSTHRTACVRAHTHTHTHTHTHH [GNAO1]”, the median enrichment worked out at 3.16. The value for “SAGPWDTAFSFARLSACRPGGEPGPANESLVYLGCNSLKVQSFGLQSCPGPGSPGHCCSPRPWALVFLQHHTCCPFSISVCVK [MYO1F]” was 7.3; that for “QAPTLLLLALLPASVQRTGRYWWEALCLAPQLPVWASKHNGPSRSLVETGVVVPNLPSALPLHRTQRPQALQGVLVPAFPRTS [AMIGO3]” was 1.8; that for LFD [RBM26] was 1.04.

Regarding SSS [Ser03], the median enrichment amounted to 0.352.
